Literature values in paper PMC8746970, “Determination of the Peptide AWRK6 in Rat Plasma by Liquid Chromatography-Tandem Mass Spectrometry (LC-MS/MS) and Its Application to Pharmacokinetics” (Molecules, 2021).

Settings: in vivo; cited from earlier work

In the case of glucagon-like peptide-1 [GLP-1], the elimination half-life is given as ~ 2 min.
